# Data taken from patent publication US20110243947A1 (Eli Lilly, published 2011).
# T1: mouse CSF-1R (mouse, UniProt P09581 20-511, limits assumed)
# T1 construct: also called murine form of the receptor
# T1 sequence (looked up): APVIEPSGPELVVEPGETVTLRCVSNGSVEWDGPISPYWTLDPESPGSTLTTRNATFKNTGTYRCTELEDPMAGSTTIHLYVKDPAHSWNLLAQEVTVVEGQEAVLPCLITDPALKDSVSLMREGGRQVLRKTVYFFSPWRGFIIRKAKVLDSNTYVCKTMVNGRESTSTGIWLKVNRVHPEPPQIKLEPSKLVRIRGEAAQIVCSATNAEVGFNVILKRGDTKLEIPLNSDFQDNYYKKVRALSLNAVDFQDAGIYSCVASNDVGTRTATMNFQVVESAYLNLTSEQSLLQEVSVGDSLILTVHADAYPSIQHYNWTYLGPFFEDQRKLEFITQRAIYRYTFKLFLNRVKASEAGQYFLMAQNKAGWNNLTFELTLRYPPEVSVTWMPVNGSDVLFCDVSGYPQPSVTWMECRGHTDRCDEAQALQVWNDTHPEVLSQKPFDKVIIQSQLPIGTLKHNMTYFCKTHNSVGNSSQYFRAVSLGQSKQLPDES
# B1: Antibody 1 (antibody, human IgG1, kappa, V domains shown)
# VH: QDQLVESGGGVVQPGRSLRLSCAASGFTFSSYGMHWVRQAPGEGLEWVAVIWYDGSNKYYADSVKGRFTISRDNSKNTLYLQMNSLRAEDTAVYYCARGDYEVDYGMDVWGQGTTVTVAS
# VL: AIQLTQSPSSLSASVGDRVTITCRASQGISNALAWYQQKPGKAPKLLIYDASSLESGVPSRFSGSGSGTDFTLTISSLQPEDFATYYCQQFNSYPWTFGQGTKVEIKR
# notes: also called anti-CSF-1R Antibody 1
# Columns and labels:
# chimera 3 (m,m,m) = target: T2, chimera 3 (m,m,m) (mouse; human, UniProt P09581 21-292); assay: binding ELISA, coated chimera
# T2 construct: range 21-292; not shown: Fc portion of an IgG molecule
# Description: (§1) Briefly, coat plates with 100 μL of 200 ng/mL human, mouse or chimera 1-7 proteins overnight.
# mouse CSF-1R = target: T1, mouse CSF-1R; assay: binding ELISA, coated receptor protein
# Description: as §1
# T2 sequence (P09581 other isoform, or with tags, fused parts or gaps mutant): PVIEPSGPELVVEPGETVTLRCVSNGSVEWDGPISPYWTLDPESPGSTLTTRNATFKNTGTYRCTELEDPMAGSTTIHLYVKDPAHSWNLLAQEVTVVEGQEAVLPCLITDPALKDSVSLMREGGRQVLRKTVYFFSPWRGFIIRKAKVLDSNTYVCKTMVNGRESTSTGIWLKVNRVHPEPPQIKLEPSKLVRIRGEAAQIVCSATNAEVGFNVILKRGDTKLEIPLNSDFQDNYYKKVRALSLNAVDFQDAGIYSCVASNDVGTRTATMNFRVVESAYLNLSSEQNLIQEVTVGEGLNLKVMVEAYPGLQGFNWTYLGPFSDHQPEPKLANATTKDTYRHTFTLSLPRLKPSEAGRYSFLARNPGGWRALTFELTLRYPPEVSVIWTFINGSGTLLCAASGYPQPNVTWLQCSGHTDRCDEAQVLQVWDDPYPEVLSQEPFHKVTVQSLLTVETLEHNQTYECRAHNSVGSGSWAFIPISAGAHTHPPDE
binder,measurement,setting,value
B1,binding result,"chimera 3 (m,m,m)",no binding (tested: 100 nM)
same,binding result,mouse CSF-1R,no binding (tested: 100 nM)
